Source: patent US20090227510A1

Biological target: HLA-A2 (human)
Assay: HLA-A2 stabilization assay

Binder: EIWTFSYKV [J65, variant of FBP epitope E39 (H5→F, Y7→T)]
- HLA-A2 stabilizing ability relative to E39: 0.5 fold of E39
